Reference: patent US20180155451A1 (published 2018)

Assays:
[1] = molecular target: T1, FcγRIIIa extracellular domain with C-terminal His tag (human, UniProt P08637 17-208); experiment: SPR, relative to GpH7-A5/GpH7-B3/GpL16-k0
T1 construct: extracellular domain; also called 3a; FcgRIIIa
Protocol: (§1) The heterodimerized antibodies He Abs in which one of the H chains was introduced with an alteration were assayed for their binding activities to each activating FcγR and inhibitory FcγR according to the method described in Example 4. […] The activating FcγRs in FIGS. 26, 27, 28, and 29 are FcγRIa, FcγRIIa (R), FcγRIIa (H), and FcγRIIIa, respectively.
(§2) Analysis of interaction between objective antibody and the FcγR was carried out using Biacore T100 (GE Healthcare). HBS-EP+ (GE Healthcare) was used as the running buffer, and the measurement temperature was set to 25° C. Chips produced by immobilizing the antigen peptide by the amine coupling method to a Series S Sencor Chip CM5 (GE Healthcare), or alternatively, chips produced by allowing preliminarily biotinylated antigen peptides to interact with and immobilize onto a Series S Sensor Chip SA (certified) (GE Healthcare) were used. Antibodies of interest were captured onto an antigen peptide-immobilized chip, and allowed to interact to each FcγR diluted with running buffer. To regenerate and repeatedly use the chip, the antibodies captured on the chip were washed off by reacting 10 mM glycine-HCl, pH 1.5.

[2] = molecular target: T2, FcγRIIb extracellular domain with C-terminal His tag (human, UniProt P31994 43-217); experiment: SPR, relative to GpH7-A5/GpH7-B3/GpL16-k0
T2 construct: extracellular domain; also called 2b; FcgRIIb
T2 sequence (looked up): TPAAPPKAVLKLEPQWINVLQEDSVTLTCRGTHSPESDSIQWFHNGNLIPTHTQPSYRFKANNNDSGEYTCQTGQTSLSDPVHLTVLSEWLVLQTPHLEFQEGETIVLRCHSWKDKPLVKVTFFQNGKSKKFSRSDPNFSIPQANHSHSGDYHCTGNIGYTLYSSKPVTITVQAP
Protocol: as §1, §2

T1 sequence (P08637 17-208): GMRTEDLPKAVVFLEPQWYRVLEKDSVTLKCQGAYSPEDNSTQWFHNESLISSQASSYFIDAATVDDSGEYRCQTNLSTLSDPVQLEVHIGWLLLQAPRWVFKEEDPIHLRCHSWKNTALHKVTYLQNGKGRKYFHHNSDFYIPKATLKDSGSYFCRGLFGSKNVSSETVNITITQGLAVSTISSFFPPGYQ

B1: GpH7-A5/GpH7-B3 variant E333_09D/GpL16-k0 (antibody, human IgG1, kappa)
heavy 1: not shown
heavy 2: not shown
light: DIVMTQSPLSLPVTPGEPASISCQASESLVHSNRNTYLHWYLQKPGQSPQLLIYKVSNRFSGVPDRFSGSGSGTDFTLKISRVEAEDVGVYYCSQNTHVPPTFGQGTKVEIERTVAAPSVFIFPPSDEQLKSGTASVVCLLNNFYPREAKVQWKVDNALQSGNSQESVTEQDSKDSTYSLSSTLTLSKADYEKHKVYACEVTHQGLSSPVTKSFNRGEC
notes: He Ab: alteration in one H chain only; also called He Ab
Work on B1 yielded a He/Con_3a [1] of 112 control=100 and a He/Con_2b [2] of 94.3 control=100.

B2: GpH7-A5/GpH7-B3 variant I332_01G/GpL16-k0 (antibody, human IgG1, kappa)
heavy 1: not shown
heavy 2: not shown
light: DIVMTQSPLSLPVTPGEPASISCQASESLVHSNRNTYLHWYLQKPGQSPQLLIYKVSNRFSGVPDRFSGSGSGTDFTLKISRVEAEDVGVYYCSQNTHVPPTFGQGTKVEIERTVAAPSVFIFPPSDEQLKSGTASVVCLLNNFYPREAKVQWKVDNALQSGNSQESVTEQDSKDSTYSLSSTLTLSKADYEKHKVYACEVTHQGLSSPVTKSFNRGEC
notes: as for B1
With B2 the He/Con_3a [1] was 111 control=100 and the He/Con_2b [2] was 87.1 control=100.

B3: GpH7-A5/GpH7-B3 variant I332_19Q/GpL16-k0 (antibody, human IgG1, kappa)
heavy 1: not shown
heavy 2: not shown
light: DIVMTQSPLSLPVTPGEPASISCQASESLVHSNRNTYLHWYLQKPGQSPQLLIYKVSNRFSGVPDRFSGSGSGTDFTLKISRVEAEDVGVYYCSQNTHVPPTFGQGTKVEIERTVAAPSVFIFPPSDEQLKSGTASVVCLLNNFYPREAKVQWKVDNALQSGNSQESVTEQDSKDSTYSLSSTLTLSKADYEKHKVYACEVTHQGLSSPVTKSFNRGEC
notes: as for B1
With B3 the He/Con_3a [1] was 110 control=100 and the He/Con_2b [2] was 94.3 control=100.

B4: GpH7-A5/GpH7-B3 variant L234_04F/GpL16-k0 (antibody, human IgG1, kappa)
heavy 1: not shown
heavy 2: not shown
light: DIVMTQSPLSLPVTPGEPASISCQASESLVHSNRNTYLHWYLQKPGQSPQLLIYKVSNRFSGVPDRFSGSGSGTDFTLKISRVEAEDVGVYYCSQNTHVPPTFGQGTKVEIERTVAAPSVFIFPPSDEQLKSGTASVVCLLNNFYPREAKVQWKVDNALQSGNSQESVTEQDSKDSTYSLSSTLTLSKADYEKHKVYACEVTHQGLSSPVTKSFNRGEC
notes: as for B1
With B4 the He/Con_3a [1] was 118 control=100 and the He/Con_2b [2] was 99.8 control=100.

B5: GpH7-A5/GpH7-B3 variant E333_16H/GpL16-k0 (antibody, human IgG1, kappa)
heavy 1: not shown
heavy 2: not shown
light: DIVMTQSPLSLPVTPGEPASISCQASESLVHSNRNTYLHWYLQKPGQSPQLLIYKVSNRFSGVPDRFSGSGSGTDFTLKISRVEAEDVGVYYCSQNTHVPPTFGQGTKVEIERTVAAPSVFIFPPSDEQLKSGTASVVCLLNNFYPREAKVQWKVDNALQSGNSQESVTEQDSKDSTYSLSSTLTLSKADYEKHKVYACEVTHQGLSSPVTKSFNRGEC
notes: as for B1
Binder B5 has a He/Con_3a [1] of 103 control=100 and a He/Con_2b [2] of 83.3 control=100.

B6: GpH7-A5/GpH7-B3 variant S298_03V/GpL16-k0 (antibody, human IgG1, kappa)
heavy 1: not shown
heavy 2: not shown
light: DIVMTQSPLSLPVTPGEPASISCQASESLVHSNRNTYLHWYLQKPGQSPQLLIYKVSNRFSGVPDRFSGSGSGTDFTLKISRVEAEDVGVYYCSQNTHVPPTFGQGTKVEIERTVAAPSVFIFPPSDEQLKSGTASVVCLLNNFYPREAKVQWKVDNALQSGNSQESVTEQDSKDSTYSLSSTLTLSKADYEKHKVYACEVTHQGLSSPVTKSFNRGEC
notes: as for B1
B6 showed a He/Con_3a [1] of 109 control=100 and a He/Con_2b [2] of 64.5 control=100.

B7: GpH7-A5/GpH7-B3 variant I332_13S/GpL16-k0 (antibody, human IgG1, kappa)
heavy 1: not shown
heavy 2: not shown
light: DIVMTQSPLSLPVTPGEPASISCQASESLVHSNRNTYLHWYLQKPGQSPQLLIYKVSNRFSGVPDRFSGSGSGTDFTLKISRVEAEDVGVYYCSQNTHVPPTFGQGTKVEIERTVAAPSVFIFPPSDEQLKSGTASVVCLLNNFYPREAKVQWKVDNALQSGNSQESVTEQDSKDSTYSLSSTLTLSKADYEKHKVYACEVTHQGLSSPVTKSFNRGEC
notes: as for B1
Binder B7 has a He/Con_3a [1] of 104 control=100 and a He/Con_2b [2] of 98.4 control=100.

B8: GpH7-A5/GpH7-B3 variant Q295_10E/GpL16-k0 (antibody, human IgG1, kappa)
heavy 1: not shown
heavy 2: not shown
light: DIVMTQSPLSLPVTPGEPASISCQASESLVHSNRNTYLHWYLQKPGQSPQLLIYKVSNRFSGVPDRFSGSGSGTDFTLKISRVEAEDVGVYYCSQNTHVPPTFGQGTKVEIERTVAAPSVFIFPPSDEQLKSGTASVVCLLNNFYPREAKVQWKVDNALQSGNSQESVTEQDSKDSTYSLSSTLTLSKADYEKHKVYACEVTHQGLSSPVTKSFNRGEC
notes: as for B1
Binder B8 has a He/Con_3a [1] of 100 control=100 and a He/Con_2b [2] of 94.8 control=100.

B9: GpH7-A5/GpH7-B3 variant Q295_02A/GpL16-k0 (antibody, human IgG1, kappa)
heavy 1: not shown
heavy 2: not shown
light: DIVMTQSPLSLPVTPGEPASISCQASESLVHSNRNTYLHWYLQKPGQSPQLLIYKVSNRFSGVPDRFSGSGSGTDFTLKISRVEAEDVGVYYCSQNTHVPPTFGQGTKVEIERTVAAPSVFIFPPSDEQLKSGTASVVCLLNNFYPREAKVQWKVDNALQSGNSQESVTEQDSKDSTYSLSSTLTLSKADYEKHKVYACEVTHQGLSSPVTKSFNRGEC
notes: as for B1
With B9 the He/Con_3a [1] was 106 control=100 and the He/Con_2b [2] was 79.7 control=100.

B10: GpH7-A5/GpH7-B3 variant S298_14T/GpL16-k0 (antibody, human IgG1, kappa)
heavy 1: not shown
heavy 2: not shown
light: DIVMTQSPLSLPVTPGEPASISCQASESLVHSNRNTYLHWYLQKPGQSPQLLIYKVSNRFSGVPDRFSGSGSGTDFTLKISRVEAEDVGVYYCSQNTHVPPTFGQGTKVEIERTVAAPSVFIFPPSDEQLKSGTASVVCLLNNFYPREAKVQWKVDNALQSGNSQESVTEQDSKDSTYSLSSTLTLSKADYEKHKVYACEVTHQGLSSPVTKSFNRGEC
notes: as for B1
With B10 the He/Con_3a [1] was 113 control=100 and the He/Con_2b [2] was 77.9 control=100.

B11: GpH7-A5/GpH7-B3 variant S298_02A/GpL16-k0 (antibody, human IgG1, kappa)
heavy 1: not shown
heavy 2: not shown
light: DIVMTQSPLSLPVTPGEPASISCQASESLVHSNRNTYLHWYLQKPGQSPQLLIYKVSNRFSGVPDRFSGSGSGTDFTLKISRVEAEDVGVYYCSQNTHVPPTFGQGTKVEIERTVAAPSVFIFPPSDEQLKSGTASVVCLLNNFYPREAKVQWKVDNALQSGNSQESVTEQDSKDSTYSLSSTLTLSKADYEKHKVYACEVTHQGLSSPVTKSFNRGEC
notes: as for B1
In the case of B11, the He/Con_3a [1] is reported as 160 control=100 and the He/Con_2b [2] is reported as 73.4 control=100.

B12: GpH7-A5/GpH7-B3 variant S324_01G/GpL16-k0 (antibody, human IgG1, kappa)
heavy 1: not shown
heavy 2: not shown
light: DIVMTQSPLSLPVTPGEPASISCQASESLVHSNRNTYLHWYLQKPGQSPQLLIYKVSNRFSGVPDRFSGSGSGTDFTLKISRVEAEDVGVYYCSQNTHVPPTFGQGTKVEIERTVAAPSVFIFPPSDEQLKSGTASVVCLLNNFYPREAKVQWKVDNALQSGNSQESVTEQDSKDSTYSLSSTLTLSKADYEKHKVYACEVTHQGLSSPVTKSFNRGEC
notes: as for B1
B12 was tested, and the He/Con_3a [1] was 105 control=100 and the He/Con_2b [2] was 81.1 control=100.

B13: GpH7-A5/GpH7-B3 variant E333_13S/GpL16-k0 (antibody, human IgG1, kappa)
heavy 1: not shown
heavy 2: not shown
light: DIVMTQSPLSLPVTPGEPASISCQASESLVHSNRNTYLHWYLQKPGQSPQLLIYKVSNRFSGVPDRFSGSGSGTDFTLKISRVEAEDVGVYYCSQNTHVPPTFGQGTKVEIERTVAAPSVFIFPPSDEQLKSGTASVVCLLNNFYPREAKVQWKVDNALQSGNSQESVTEQDSKDSTYSLSSTLTLSKADYEKHKVYACEVTHQGLSSPVTKSFNRGEC
notes: as for B1
For B13, the He/Con_3a [1] was 103 control=100 and the He/Con_2b [2] was 81.8 control=100.

B14: GpH7-A5/GpH7-B3 variant Q295_14T/GpL16-k0 (antibody, human IgG1, kappa)
heavy 1: not shown
heavy 2: not shown
light: DIVMTQSPLSLPVTPGEPASISCQASESLVHSNRNTYLHWYLQKPGQSPQLLIYKVSNRFSGVPDRFSGSGSGTDFTLKISRVEAEDVGVYYCSQNTHVPPTFGQGTKVEIERTVAAPSVFIFPPSDEQLKSGTASVVCLLNNFYPREAKVQWKVDNALQSGNSQESVTEQDSKDSTYSLSSTLTLSKADYEKHKVYACEVTHQGLSSPVTKSFNRGEC
notes: as for B1
Binder B14 has a He/Con_3a [1] of 115 control=100 and a He/Con_2b [2] of 66.8 control=100.

B15: GpH7-A5/GpH7-B3 variant E333_20W/GpL16-k0 (antibody, human IgG1, kappa)
heavy 1: not shown
heavy 2: not shown
light: DIVMTQSPLSLPVTPGEPASISCQASESLVHSNRNTYLHWYLQKPGQSPQLLIYKVSNRFSGVPDRFSGSGSGTDFTLKISRVEAEDVGVYYCSQNTHVPPTFGQGTKVEIERTVAAPSVFIFPPSDEQLKSGTASVVCLLNNFYPREAKVQWKVDNALQSGNSQESVTEQDSKDSTYSLSSTLTLSKADYEKHKVYACEVTHQGLSSPVTKSFNRGEC
notes: as for B1
Work on B15 yielded a He/Con_3a [1] of 101 control=100 and a He/Con_2b [2] of 89.5 control=100.
